Assay results taken from paper PMC9159934.

Target: BsaXI specificity subunit, WT: TRD1-CR1-TRD2-CR2 (Bacillus stearothermophilus 25B (Geobacillus sp. 25B))
Experiment: co-purification by chromatography + SDS-PAGE band densitometry; RM and S expressed separately as intein-CBD fusions, combined and purified together over chitin, DEAE, heparin, Source 15S, Source 15Q and gel filtration (Superdex 75); RM:S ratio estimated from molecular mass and band intensity on SDS-PAGE (Bio Rad gel imaging software)

stoichiometry N: 2 RM per S
Substance: BsaXI restriction-modification subunit (RM fusion) (enzyme)
